Patent publication US7563882B2, “Polynucleotides encoding antibodies that bind to the C35 polypeptide” (University of Rochester, priority 2002, dated 2009)

What was measured:
[1] = target: HLA-B*0702 (Homo sapiens, UniProt P01889); assay: Fluorescence polarization competition for MHC-peptide binding; details: soluble HLA-B*0702, fluorescent labeled binding standard
Description: A similar analysis was conducted with C35 peptides that bind to soluble HLA-B*0702 employing a fluorescent labeled HLA-B*0702 binding standard and suitable relevant and irrelevant peptides to calibrate inhibition of binding by test peptides. Note that these inhibition values are sensitive to the choice and concentration of both MHC molecule and specific fluorescent peptides under the same assay conditions.

[2] = test system: T cell line 4; format: cell-based, human
[3] = test system: EBV-B target cells; assay: C35 peptide mediated T cell lysis of peptide pulsed EBV-B cells (Table 10); format: cell-based, human
[4] = target: T1, C35 (Homo sapiens, UniProt Q9BRT3); assay: Immunohistochemical staining of primary breast tumor sections; format: binding; details: paraffin sections, affinity purified antibody
T1 construct: from tissue; host or cells: paraffin sections of primary human breast tumor (invasive breast adenocarcinoma, patient 01A6) and normal breast tissue
T1 sequence (Q9BRT3 1-115): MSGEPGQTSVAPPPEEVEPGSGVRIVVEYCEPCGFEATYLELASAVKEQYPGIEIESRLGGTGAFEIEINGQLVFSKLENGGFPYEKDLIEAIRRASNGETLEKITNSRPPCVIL
Description: Antibody was affinity purified from 1F2 hybridoma supernatant. Paraffin-embedded slides were deparaffinized with xylene and rehydrated through graded alcohols. Target retrieval was achieved through steam and high pH treatment. […] Slides were counterstained with hematoxylin, dehydrated with EtOH/xylene, and coverslipped.

[5] = target: T2, hC35 protein (Homo sapiens, UniProt Q9BRT3); assay: Western Blot immunodetection with hybridoma supernatants; format: binding; details: 100 ng purified recombinant C35 protein or control β-galactosidase per lane
T2 construct: made in house; host or cells: E. coli
T2 sequence (Q9BRT3 1-115): T1 sequence (Q9BRT3 1-115)
Description: Western Blot Immunodetection was performed with supernatants from selected hybridoma clones. […] In these experiments, 100 ng of purified recombinant C35 protein or control β-galactosidase protein was loaded in each lane of an 18% SDS polyacrylamide gel. Gels were transferred to PVDF membrane, as is well known to those practiced in the art. Membranes were blocked with Tris buffered saline (TBS), including Tween-20 and 5% non-fat dry milk. Each blot was incubated with various dilutions of hybridoma supernatants as the primary antibody, followed by incubation with a secondary antibody, goat anti-mouse IgG conjugated to HRP, and detected with the chemiluminescent substrate, ECL. Similar results were obtained with 11B10 (not shown).

ITNSRPPCV [105-113]
% Inhibition [1]: 45.2%

KLENGGFPY [peptide 77-85]
GM-CSF stimulation [2]: greatest stimulation | % Lysis EBV-B cell Target ([3]; T cell clone #46, donor (A2, A3; B18, B44), target pulsed with peptide): 97.1% | lytic activity on EBV-B cells pulsed with peptide ([3]; T cell clones from donor with A2, A3, B18, B44 HLA haplotypes): 97.1%

NSRPPCVIL [N107 to L115]
% Inhibition [1]: 68.2%

B1: 1F2: C35-specific monoclonal antibody; Kappa and IgG1 V-genes SEQ ID NOs:148 and 149 (antibody, V domains shown)
VH: MKVLSLLYLLTAIPGILSDVQLQESGPGLVKPSQSLSLTCSVTGYSITSGYFWNWIRQFPGNKLEWMGYISYDGSNNSNPSLKNRISFTRDTSKNQFFLKFNSVTTDDSAAYYCTRGTTGFAYWGQGTLVTVSA
VL: MDFQVQIFSFLLISASVRMSRGQIVLTQSPAIMSASPGEKVTISCSASSSVSYMNWYQQKPGSSPKPWIYHTSNLASGVPARFSGSGSGTSYSLTISSMEAEDAATYYCQQYHSYPPTFGGGTKLEIK
modifications: cDNA of 1E11/1F2 V-genes (IgG1); cDNA of 1E11/1F2 V-genes (Kappa)
immunohistochemical staining of human breast tumors [4]: can detect high levels of endogenous C35 expression | immunohistochemical staining of normal breast tissue [4]: little or no staining | reactivity with hC35 protein in Western Blot [5]: reacted specifically
